From patent US20150212086A1
Where no end group is shown, it is not given here.

Molecular target: full-length MDGI (mammary-derived growth inhibitor) expressed from the pcDNA3-9E10 plasmid as a c-Myc fusion protein (mouse) (UniProt P11404)
Assay: phage binding to U2OS cells transiently transfected with MDGI, 2 h at 4 C, bound phage titrated

CGLSGLGVA (peptide, not shown: large carriers, also: displayed on T7 phage capsid protein) [CooP displaying phage (phage 36), peptide sequence …] showed a fold increase of phage binding compared to the original library of 10 fold.
